Assay results taken from article PMC7697101.
No end group written: not given here.

Target: formyl peptide receptor 2 (Fpr2/ALX), murine (mouse (endogenous in C57BL/6 and STM mice)) (UniProt O88536)
Chain of UniProt O88536 (O88536 whole entry): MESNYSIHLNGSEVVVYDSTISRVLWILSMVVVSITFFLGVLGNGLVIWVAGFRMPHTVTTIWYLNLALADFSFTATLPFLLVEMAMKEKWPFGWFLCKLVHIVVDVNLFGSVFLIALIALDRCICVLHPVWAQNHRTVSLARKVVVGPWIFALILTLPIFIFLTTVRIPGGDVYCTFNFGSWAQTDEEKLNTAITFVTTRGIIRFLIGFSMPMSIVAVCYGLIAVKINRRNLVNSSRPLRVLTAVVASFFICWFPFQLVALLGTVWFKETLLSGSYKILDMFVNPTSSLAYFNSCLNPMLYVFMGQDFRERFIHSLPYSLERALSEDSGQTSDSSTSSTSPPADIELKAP

With Ac-AMVSEFLKQAWFIENEEQEYVQTVK [AnxA1 mimetic peptide AnxA1_(Ac2-26)] the increase in blood flow (cessation time) in cerebral venules of sickle cell transgenic mice given AnxA1 (Ac2-26) 4 mg/kg vs. saline, light/dye thrombosis; mitigated by co-administration of Boc2 or WRW4 was 63.5%.
